Test results as given in PMC9482650, “Quantitative fragmentomics allow affinity mapping of interactomes” (Nature Communications, 2022).

Columns and labels:
Experiment in all cases: holdup assay
Set-up in all cases: key: below the threshold = too weak to quantify, mostly under pKd 3.1 to 4
APBA3_1, O96018 = molecular target: T1, APBA3_1, O96018
T1 sequence (O96018 389-490, limits assumed, looked up): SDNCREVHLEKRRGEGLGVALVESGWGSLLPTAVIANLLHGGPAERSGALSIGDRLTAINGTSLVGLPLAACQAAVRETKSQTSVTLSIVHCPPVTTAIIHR

ARHGAP21, Q5T5U3 = molecular target: T2, ARHGAP21, Q5T5U3
T2 sequence (Q5T5U3 45-169, limits assumed, looked up): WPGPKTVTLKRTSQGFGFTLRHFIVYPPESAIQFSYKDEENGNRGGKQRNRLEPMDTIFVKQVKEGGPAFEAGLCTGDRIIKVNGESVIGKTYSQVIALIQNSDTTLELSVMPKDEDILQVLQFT

DFNB31_3, Q9P202 = molecular target: T3, DFNB31_3, Q9P202
T3 sequence (Q9P202 811-907, limits assumed, looked up): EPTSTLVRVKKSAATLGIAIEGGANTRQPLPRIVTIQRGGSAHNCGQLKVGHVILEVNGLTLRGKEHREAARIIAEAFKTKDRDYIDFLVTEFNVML

DLG1_2, Q12959 = molecular target: DLG1_2, Q12959
Sequence of DLG1_2, Q12959 (Q12959 314-412): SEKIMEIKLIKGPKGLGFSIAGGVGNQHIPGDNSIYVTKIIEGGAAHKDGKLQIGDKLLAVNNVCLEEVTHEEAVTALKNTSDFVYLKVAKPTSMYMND

DLG2_2, Q15700 = molecular target: DLG2_2, Q15700
Sequence of DLG2_2, Q15700 (Q15700 189-283): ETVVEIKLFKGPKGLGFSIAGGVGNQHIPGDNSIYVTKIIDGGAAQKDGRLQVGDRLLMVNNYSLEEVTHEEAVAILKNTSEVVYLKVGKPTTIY

DLG4_3, P78352 = molecular target: DLG4_3, P78352
Sequence of DLG4_3, P78352 (P78352 306-403): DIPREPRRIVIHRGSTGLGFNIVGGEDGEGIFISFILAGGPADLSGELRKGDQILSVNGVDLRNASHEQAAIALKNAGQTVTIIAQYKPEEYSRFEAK

DLG5_1, Q8TDM6 = molecular target: DLG5_1, Q8TDM6
Sequence of DLG5_1, Q8TDM6 (Q8TDM6 617-713): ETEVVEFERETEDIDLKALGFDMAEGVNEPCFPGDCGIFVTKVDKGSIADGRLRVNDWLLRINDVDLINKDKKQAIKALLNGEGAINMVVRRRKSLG

DVL3, Q92997 = molecular target: T4, DVL3, Q92997
T4 sequence (Q92997 244-331, limits assumed, looked up): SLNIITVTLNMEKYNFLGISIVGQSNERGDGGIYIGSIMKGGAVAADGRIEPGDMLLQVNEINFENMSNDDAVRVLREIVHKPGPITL

FRMPD2_1, Q68DX3 = molecular target: FRMPD2_1, Q68DX3
Sequence of FRMPD2_1, Q68DX3 (Q68DX3 770-861): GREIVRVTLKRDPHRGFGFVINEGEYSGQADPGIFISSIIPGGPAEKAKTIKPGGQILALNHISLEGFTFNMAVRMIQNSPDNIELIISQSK

FRMPD3, Q5JV73 = molecular target: FRMPD3, Q5JV73
Sequence of FRMPD3, Q5JV73 (Q5JV73 12-100): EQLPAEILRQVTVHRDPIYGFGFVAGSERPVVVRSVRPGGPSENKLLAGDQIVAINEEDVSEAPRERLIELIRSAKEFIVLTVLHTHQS

GRIP1_2, Q9Y3R0 = molecular target: T5, GRIP1_2, Q9Y3R0
T5 sequence (Q9Y3R0 145-248, limits assumed, looked up): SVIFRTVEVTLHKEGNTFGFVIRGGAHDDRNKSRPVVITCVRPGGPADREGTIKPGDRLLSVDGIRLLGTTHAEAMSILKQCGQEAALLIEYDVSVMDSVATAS

GRIP2_3, Q9C0E4 = molecular target: GRIP2_3, Q9C0E4
Sequence of GRIP2_3, Q9C0E4 (Q9C0E4 238-339): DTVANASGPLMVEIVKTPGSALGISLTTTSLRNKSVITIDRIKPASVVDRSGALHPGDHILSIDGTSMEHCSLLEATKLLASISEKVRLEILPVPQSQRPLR

GRIP2_6, Q9C0E4 = molecular target: GRIP2_6, Q9C0E4
Sequence of GRIP2_6, Q9C0E4 (Q9C0E4 648-740): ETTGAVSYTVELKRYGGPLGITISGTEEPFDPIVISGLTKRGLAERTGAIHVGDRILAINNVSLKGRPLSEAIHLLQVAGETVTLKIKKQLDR

GRIP2_7, Q9C0E4 = molecular target: GRIP2_7, Q9C0E4
Sequence of GRIP2_7, Q9C0E4 (Q9C0E4 934-1023): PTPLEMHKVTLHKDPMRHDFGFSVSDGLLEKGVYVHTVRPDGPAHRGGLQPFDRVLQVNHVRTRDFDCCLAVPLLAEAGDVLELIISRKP

HTRA4, P83105 = molecular target: T6, HTRA4, P83105
T6 sequence (P83105 378-476, limits assumed, looked up): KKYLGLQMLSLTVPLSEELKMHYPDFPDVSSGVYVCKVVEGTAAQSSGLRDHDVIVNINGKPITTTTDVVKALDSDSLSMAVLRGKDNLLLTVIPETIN

IL16_4, Q14005 = molecular target: IL16_4, Q14005
Sequence of IL16_4, Q14005 (Q14005 1229-1329): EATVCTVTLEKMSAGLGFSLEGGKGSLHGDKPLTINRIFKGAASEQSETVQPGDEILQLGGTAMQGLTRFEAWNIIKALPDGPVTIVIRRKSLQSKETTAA

Inadl_2, Q8NI35 = molecular target: Inadl_2, Q8NI35
Sequence of Inadl_2, Q8NI35 (Q8NI35 238-335): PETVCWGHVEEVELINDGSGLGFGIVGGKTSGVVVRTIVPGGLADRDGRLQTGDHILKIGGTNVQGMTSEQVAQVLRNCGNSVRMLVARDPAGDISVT

Inadl_8, Q8NI35 = molecular target: Inadl_8, Q8NI35
Sequence of Inadl_8, Q8NI35 (Q8NI35 1425-1530): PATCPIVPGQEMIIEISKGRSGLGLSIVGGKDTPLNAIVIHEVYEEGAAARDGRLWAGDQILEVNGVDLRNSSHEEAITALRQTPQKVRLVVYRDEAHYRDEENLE

Inadl_9, Q8NI35 = molecular target: Inadl_9, Q8NI35
Sequence of Inadl_9, Q8NI35 (Q8NI35 1530-1615): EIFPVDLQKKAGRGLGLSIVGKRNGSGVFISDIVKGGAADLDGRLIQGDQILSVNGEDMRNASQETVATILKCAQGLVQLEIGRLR

LAP2, Q96RT1 = molecular target: LAP2, Q96RT1
Sequence of LAP2, Q96RT1 (Q96RT1 other isoform, or with tags, fused parts or gaps): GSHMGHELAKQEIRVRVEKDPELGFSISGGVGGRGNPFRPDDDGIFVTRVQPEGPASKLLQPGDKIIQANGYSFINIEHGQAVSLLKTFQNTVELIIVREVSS

LDB3, O75112 = molecular target: LDB3, O75112
Sequence of LDB3, O75112 (O75112 1-94): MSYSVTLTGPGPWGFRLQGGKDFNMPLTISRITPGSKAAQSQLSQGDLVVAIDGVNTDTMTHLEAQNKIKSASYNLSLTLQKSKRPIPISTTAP

LRRC7, Q96NW7 = molecular target: T7, LRRC7, Q96NW7
T7 sequence (Q96NW7 1440-1537, limits assumed, looked up): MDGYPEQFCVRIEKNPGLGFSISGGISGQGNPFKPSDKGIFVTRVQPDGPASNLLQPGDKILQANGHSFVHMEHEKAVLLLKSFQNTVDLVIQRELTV

MAGI2_2, Q86UL8 = molecular target: MAGI2_2, Q86UL8
Sequence of MAGI2_2, Q86UL8 (Q86UL8 410-522): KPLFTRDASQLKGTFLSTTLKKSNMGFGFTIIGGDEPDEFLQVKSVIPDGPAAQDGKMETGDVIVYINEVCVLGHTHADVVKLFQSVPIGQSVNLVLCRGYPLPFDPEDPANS

MAST2, Q6P0Q8 = molecular target: MAST2, Q6P0Q8
Sequence of MAST2, Q6P0Q8 (Q6P0Q8 1099-1202): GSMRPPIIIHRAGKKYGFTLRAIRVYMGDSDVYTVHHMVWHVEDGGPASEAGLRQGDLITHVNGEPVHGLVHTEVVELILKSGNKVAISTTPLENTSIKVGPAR

MPP6, Q9NZW5 = molecular target: T8, MPP6, Q9NZW5
T8 sequence (Q9NZW5 125-219, limits assumed, looked up): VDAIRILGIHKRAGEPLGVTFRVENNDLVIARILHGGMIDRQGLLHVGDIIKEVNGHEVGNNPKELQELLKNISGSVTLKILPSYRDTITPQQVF

RHPN1, Q8TCX5 = molecular target: T9, RHPN1, Q8TCX5
T9 sequence (Q8TCX5 508-602, limits assumed, looked up): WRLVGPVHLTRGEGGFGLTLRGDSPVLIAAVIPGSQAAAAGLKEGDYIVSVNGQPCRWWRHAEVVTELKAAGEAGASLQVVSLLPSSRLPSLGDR

SCRIB_1, Q14160 = molecular target: SCRIB_1, Q14160
Sequence of SCRIB_1, Q14160 (Q14160 718-814): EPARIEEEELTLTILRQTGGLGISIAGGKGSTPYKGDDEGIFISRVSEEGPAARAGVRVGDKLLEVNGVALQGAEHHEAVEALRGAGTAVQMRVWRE

SNX27, Q96L92 = molecular target: SNX27, Q96L92
[1] = plain residues with an end cap or a label only (N-terminal biotin on a linker: ttds)
[2] = plain residues with an end cap or a label only (N-terminal biotin on a linker: ado-ado)

For GARVSKETPL [MAPK12, P53778], the pKd (APBA3_1, O96018; [1]) was “below the threshold”, the pKd (ARHGAP21, Q5T5U3; [1]) was “below the threshold” and the pKd (DFNB31_3, Q9P202; [1]) was “below the threshold”. It also gave a pKd (DLG1_2, Q12959; [1]) of 4.71, a pKd (DLG2_2, Q15700; [1]) of 4.25 and a pKd (DLG4_3, P78352; [1]) of 4.03. For the same binder, the pKd (DLG5_1, Q8TDM6; [1]) was “below the threshold”, the pKd (DVL3, Q92997; [1]) was “below the threshold” and the pKd (FRMPD2_1, Q68DX3; [1]) was “below the threshold”. For the same binder, the pKd (FRMPD3, Q5JV73; [1]) was “below the threshold”, the pKd (GRIP1_2, Q9Y3R0; [1]) was “below the threshold” and the pKd (GRIP2_3, Q9C0E4; [1]) was “below the threshold”. The pKd (GRIP2_6, Q9C0E4; [1]) was “below the threshold”, the pKd (GRIP2_7, Q9C0E4; [1]) was “below the threshold” and the pKd (HTRA4, P83105; [1]) was “below the threshold”. The pKd (IL16_4, Q14005; [1]) was 3.58, the pKd (Inadl_2, Q8NI35; [1]) was “below the threshold” and the pKd (Inadl_8, Q8NI35; [1]) was “below the threshold”. The pKd (Inadl_9, Q8NI35; [1]) was “below the threshold”, the pKd (LAP2, Q96RT1; [1]) was “below the threshold” and the pKd (LDB3, O75112; [1]) was “below the threshold”. The pKd (LRRC7, Q96NW7; [1]) was “below the threshold”, the pKd (MAGI2_2, Q86UL8; [1]) was 3.83 and the pKd (MAST2, Q6P0Q8; [1]) was 4.78. The pKd (MPP6, Q9NZW5; [1]) was “below the threshold”, the pKd (RHPN1, Q8TCX5; [1]) was “below the threshold” and the pKd (SCRIB_1, Q14160; [1]) was 4.94. For the same binder, the pKd (SNX27, Q96L92; [1]) was 5.

For KQVVPFSSSV [GDA, Q9Y2T3], the pKd (APBA3_1, O96018; [1]) was “below the threshold”, the pKd (ARHGAP21, Q5T5U3; [1]) was “below the threshold” and the pKd (DFNB31_3, Q9P202; [1]) was “below the threshold”. The pKd (DLG1_2, Q12959; [1]) was 4.38, the pKd (DLG2_2, Q15700; [1]) was 3.89 and the pKd (DLG4_3, P78352; [1]) was “below the threshold”. For the same binder, the pKd (DLG5_1, Q8TDM6; [1]) was “below the threshold”, the pKd (DVL3, Q92997; [1]) was “below the threshold” and the pKd (FRMPD2_1, Q68DX3; [1]) was “below the threshold”. The pKd (FRMPD3, Q5JV73; [1]) was “below the threshold”, the pKd (GRIP1_2, Q9Y3R0; [1]) was “below the threshold” and the pKd (GRIP2_3, Q9C0E4; [1]) was “below the threshold”. For the same binder, the pKd (GRIP2_6, Q9C0E4; [1]) was “below the threshold”, the pKd (GRIP2_7, Q9C0E4; [1]) was “below the threshold” and the pKd (HTRA4, P83105; [1]) was “below the threshold”. For the same binder, the pKd (IL16_4, Q14005; [1]) was “below the threshold”, the pKd (Inadl_2, Q8NI35; [1]) was “below the threshold” and the pKd (Inadl_8, Q8NI35; [1]) was 4.89. For the same binder, the pKd (Inadl_9, Q8NI35; [1]) was 3.52, the pKd (LAP2, Q96RT1; [1]) was 3.88 and the pKd (LDB3, O75112; [1]) was “below the threshold”. For the same binder, the pKd (LRRC7, Q96NW7; [1]) was “below the threshold”, the pKd (MAGI2_2, Q86UL8; [1]) was “below the threshold” and the pKd (MAST2, Q6P0Q8; [1]) was 4.83. For the same binder, the pKd (MPP6, Q9NZW5; [1]) was “below the threshold”, the pKd (RHPN1, Q8TCX5; [1]) was “below the threshold” and the pKd (SCRIB_1, Q14160; [1]) was 3.51. For the same binder, the pKd (SNX27, Q96L92; [1]) was 3.53.

IGHEDLETAV [DGKI, O75912] was tested, and the pKd (APBA3_1, O96018; [2]) was “below the threshold”, the pKd (ARHGAP21, Q5T5U3; [2]) was “below the threshold” and the pKd (DFNB31_3, Q9P202; [2]) was 3.92. The pKd (DLG1_2, Q12959; [2]) was 5.11, the pKd (DLG2_2, Q15700; [2]) was 4.71 and the pKd (DLG4_3, P78352; [2]) was “below the threshold”. For the same binder, the pKd (DLG5_1, Q8TDM6; [2]) was “below the threshold”, the pKd (DVL3, Q92997; [2]) was “below the threshold” and the pKd (FRMPD2_1, Q68DX3; [2]) was “below the threshold”. The pKd (FRMPD3, Q5JV73; [2]) was “below the threshold”, the pKd (GRIP1_2, Q9Y3R0; [2]) was “below the threshold” and the pKd (GRIP2_3, Q9C0E4; [2]) was “below the threshold”. For the same binder, the pKd (GRIP2_6, Q9C0E4; [2]) was “below the threshold”, the pKd (GRIP2_7, Q9C0E4; [2]) was “below the threshold” and the pKd (HTRA4, P83105; [2]) was “below the threshold”. For the same binder, the pKd (IL16_4, Q14005; [2]) was 3.52, the pKd (Inadl_2, Q8NI35; [2]) was “below the threshold” and the pKd (Inadl_8, Q8NI35; [2]) was “below the threshold”. For the same binder, the pKd (Inadl_9, Q8NI35; [2]) was 3.49, the pKd (LAP2, Q96RT1; [2]) was 4.56 and the pKd (LDB3, O75112; [2]) was “below the threshold”. The pKd (LRRC7, Q96NW7; [2]) was 3.93, the pKd (MAGI2_2, Q86UL8; [2]) was 3.74 and the pKd (MAST2, Q6P0Q8; [2]) was 5.47. For the same binder, the pKd (MPP6, Q9NZW5; [2]) was “below the threshold”, the pKd (RHPN1, Q8TCX5; [2]) was 4.77 and the pKd (SCRIB_1, Q14160; [2]) was 4.49. It also gave a pKd (SNX27, Q96L92; [2]) of 5.73.

In the case of DLDEEEDTHL [PODXL, O00592], the pKd (APBA3_1, O96018; [1]) is reported as “below the threshold”, the pKd (ARHGAP21, Q5T5U3; [1]) is reported as 3.56 and the pKd (DFNB31_3, Q9P202; [1]) is reported as “below the threshold”. For the same binder, the pKd (DLG1_2, Q12959; [1]) was “below the threshold”, the pKd (DLG2_2, Q15700; [1]) was “below the threshold” and the pKd (DLG4_3, P78352; [1]) was “below the threshold”. For the same binder, the pKd (DLG5_1, Q8TDM6; [1]) was “below the threshold”, the pKd (DVL3, Q92997; [1]) was “below the threshold” and the pKd (FRMPD2_1, Q68DX3; [1]) was “below the threshold”. For the same binder, the pKd (FRMPD3, Q5JV73; [1]) was 3.6, the pKd (GRIP1_2, Q9Y3R0; [1]) was 3.63 and the pKd (GRIP2_3, Q9C0E4; [1]) was “below the threshold”. For the same binder, the pKd (GRIP2_6, Q9C0E4; [1]) was “below the threshold”, the pKd (GRIP2_7, Q9C0E4; [1]) was “below the threshold” and the pKd (HTRA4, P83105; [1]) was “below the threshold”. For the same binder, the pKd (IL16_4, Q14005; [1]) was “below the threshold”, the pKd (Inadl_2, Q8NI35; [1]) was “below the threshold” and the pKd (Inadl_8, Q8NI35; [1]) was “below the threshold”. The pKd (Inadl_9, Q8NI35; [1]) was “below the threshold”, the pKd (LAP2, Q96RT1; [1]) was “below the threshold” and the pKd (LDB3, O75112; [1]) was 3.49. The pKd (LRRC7, Q96NW7; [1]) was “below the threshold”, the pKd (MAGI2_2, Q86UL8; [1]) was “below the threshold” and the pKd (MAST2, Q6P0Q8; [1]) was 5.31. For the same binder, the pKd (MPP6, Q9NZW5; [1]) was “below the threshold”, the pKd (RHPN1, Q8TCX5; [1]) was 4.1 and the pKd (SCRIB_1, Q14160; [1]) was 5.08. It also gave a pKd (SNX27, Q96L92; [1]) of 5.15.
